Test results published in patent publication US5976792.

Molecular target: 125I-labeled fibronectin
Test: binding of 125I-labeled fibronectin to whole bacterial cells

| Substance | cpm of 125I fibronectin bound to 10^9 CFU [cpm] |
| --- | --- |
| whole cells of S. aureus sar mutant ALC136 (isogenic mutant of RN6390 carrying a sar::Tn917LTV1 mutation) (cells without a defined receptor) | 2390 |
| whole cells of S. aureus strain RN6390 (parental strain) (cells without a defined receptor) | 3320 |
| whole cells of S. aureus ALC561 (ALC136 with pALC561, sar fragment nt 1-1349) (cells without a defined receptor) | 19300 |
